{
  "source": "patent US6500916B1",
  "about": "“Carrier polymers migrating into target organs and drug-containing polymers” (Ono Pharmaceutical Co., Ltd., priority 1998, dated 2002)",
  "key": {"[1]": {"tested_on": "CCl4 induced liver damage", "test": "Effect on CCl4 induced liver damage (plasma GPT level)", "format": "in vivo", "conditions": "mouse plasma, 18 hours fasting after CCl4 (10% v/v in sesame oil, 10 ml/kg i.p.); tail vein injection; Free PGE1 0.065 mg/kg, polymer 1 mg/kg", "procedure": "A solution of 10% (v/v) of CCl4 in sesame oil at dose of 10 ml/kg was administered into mouse abdominal cavity, and then drug (saline solution (Control), Free-PGE1 (Comparison), drug (PGE1)-containing polymer of the present invention PGE1-HZ-PLGA-HZ-Lac (reductive) (prepared in Example 6)) were injected into mouse through its tail vein at the setting dose. After the mouse had been fasted for 18 hours (25° C., water was freely given), blood was collected to assay GPT level (IU/L) in plasma."}, "[2]": {"test": "Biodistribution of [3H]PGE1-containing polymer (Polymer P2) after tail vein injection", "format": "in vivo, mouse", "conditions": "i.v., 3H label; for percentage of concentration in 1 ml of plasma: mean±S.D.; for percentage of urinary excretion: Urine", "procedure": "PLGA-HZ-Gal (prepared in Example 3) and PLGA-HZ-Lac (prepared in Example 5) were labeled with ^111In and were injected into mouse through its tail vein at dose of 1 mg/kg to analyze biodistribution of them. The results are shown in Tables 1 and 2 (Each value in Tables means the percentage of concentration in 1 ml of plasma, the percentage of amount of accumulation in each organ and the percentage of urinary excretion of the said PLGA derivatives (mean±S.D.), respectively at various times after administration.).\nBiodistribution of [^3H]PGE1-HZ-PLGA-HZ-Gal (prepared in Example 4, degree of polymerization=97) and [^3H]PGE1-ED-PLGA-ED-Gal (Comparison: the polymer described in International J. Pharmaceutics, 155, 65-74 (1997), degree of polymerization=101) was analyzed by the same procedure as described in Experiment 1. The results are shown in Tables 3 (Invention) and 4 (Comparison) (Each value in Tables means the percentage of concentration in 1 ml of plasma, the percentage of amount of accumulation in each organ and the percentage of urinary excretion of the said [^3H]PGE1 derivatives (mean±S.D.), respectively at various times after administration.)."}},
  "data": [
    {"compound": "PGE1-HZ-PLGA-HZ-Lac (Reductive/degree of Polymerization: d^3=0, x^3=35, y^3=36, z^3=22, w^3=4)", "values": [
      {"measurement": "GPT level", "setting": "[1]", "value": "239.12 ± 77.482", "unit": "IU/L"}
    ]},
    {"compound": "CCCCCC(O)/C=C/C1C(O)CC(=O)C1CCCCCCC(=O)O", "note": "(centres unmarked) [Free PGE1, PGE1, reference compound]", "values": [
      {"measurement": "GPT level", "setting": "[1]", "value": "660.89 ± 218.28", "unit": "IU/L"}
    ]},
    {"compound": "[^3H]PGE1-HZ-PLGA-HZ-Gal (Degree of Polymerization: d^3=0, x^3=29, y^3=32, z^3=31, w^3=5) [[^3H]-PGE1-HZ-PLGA-HZ-Gal]", "values": [
      {"measurement": "percentage of amount of accumulation in organ", "setting": "[2]; Kidney, 1 min.", "value": "1.26 ± 0.23", "unit": "%"},
      {"measurement": "percentage of amount of accumulation in organ", "setting": "[2]; Kidney, 5 min.", "value": "1.23 ± 0.06", "unit": "%"},
      {"measurement": "percentage of amount of accumulation in organ", "setting": "[2]; Kidney, 10 min.", "value": "0.79 ± 0.14", "unit": "%"},
      {"measurement": "percentage of amount of accumulation in organ", "setting": "[2]; Kidney, 60 min.", "value": "0.64 ± 0.22", "unit": "%"},
      {"measurement": "percentage of amount of accumulation in organ", "setting": "[2]; Liver, 1 min.", "value": "54.42 ± 0.79", "unit": "%"},
      {"measurement": "percentage of amount of accumulation in organ", "setting": "[2]; Liver, 5 min.", "value": "70.39 ± 3.51", "unit": "%"},
      {"measurement": "percentage of amount of accumulation in organ", "setting": "[2]; Liver, 10 min.", "value": "80.54 ± 9.52", "unit": "%"},
      {"measurement": "percentage of amount of accumulation in organ", "setting": "[2]; Liver, 60 min. (1 hour)", "value": "85.43 ± 3.78", "unit": "%"},
      {"measurement": "percentage of amount of accumulation in organ", "setting": "[2]; Lung, 1 min.", "value": "1.88 ± 0.46", "unit": "%"},
      {"measurement": "percentage of amount of accumulation in organ", "setting": "[2]; Lung, 5 min.", "value": "1.64 ± 0.56", "unit": "%"},
      {"measurement": "percentage of amount of accumulation in organ", "setting": "[2]; Lung, 10 min.", "value": "1.00 ± 0.21", "unit": "%"},
      {"measurement": "percentage of amount of accumulation in organ", "setting": "[2]; Lung, 60 min.", "value": "0.44 ± 0.18", "unit": "%"},
      {"measurement": "percentage of concentration in 1 ml of plasma", "setting": "[2]; 1 min. after administration", "value": "14.33 ± 0.75", "unit": "%"},
      {"measurement": "percentage of concentration in 1 ml of plasma", "setting": "[2]; 5 min. after administration", "value": "1.64 ± 0.51", "unit": "%"},
      {"measurement": "percentage of concentration in 1 ml of plasma", "setting": "[2]; 10 min. after administration", "value": "0.40 ± 0.06", "unit": "%"},
      {"measurement": "percentage of concentration in 1 ml of plasma", "setting": "[2]; 60 min. after administration", "value": "0.26 ± 0.07", "unit": "%"},
      {"measurement": "percentage of amount of accumulation in organ", "setting": "[2]; Spleen, 1 min.", "value": "1.11 ± 0.14", "unit": "%"},
      {"measurement": "percentage of amount of accumulation in organ", "setting": "[2]; Spleen, 5 min.", "value": "1.85 ± 0.10", "unit": "%"},
      {"measurement": "percentage of amount of accumulation in organ", "setting": "[2]; Spleen, 10 min.", "value": "1.24 ± 0.17", "unit": "%"},
      {"measurement": "percentage of amount of accumulation in organ", "setting": "[2]; Spleen, 60 min.", "value": "1.84 ± 0.16", "unit": "%"},
      {"measurement": "percentage of urinary excretion", "setting": "[2]; 1 min.", "value": "0.00 ± 0.00", "unit": "%"},
      {"measurement": "percentage of urinary excretion", "setting": "[2]; 5 min.", "value": "1.17 ± 1.01", "unit": "%"},
      {"measurement": "percentage of urinary excretion", "setting": "[2]; 10 min.", "value": "1.79 ± 0.25", "unit": "%"},
      {"measurement": "percentage of urinary excretion", "setting": "[2]; 60 min.", "value": "1.45 ± 0.83", "unit": "%"}
    ]}
  ]
}
